Assays:
[1] = biological target: T1, human chemokine (C-C motif) receptor 8 (CCR8) (human, UniProt P51685 1-355); experiment: flow cytometry blocking, human PBMC, CD3+ gate; % cells stained by competitor PE-AB8 after block
T1 construct: also called hCCR8
Description: (§1) For blocking studies, 100 μL of the cell suspension were incubated with 10 μg purified isotype control, AB1, AB2, AB3, AB4, AB5, AB8, AB9, AB10, AB11, AB12, AB13, AB14, AB15, and Commercial ABI antibodies, or isotype control, as blocking agents.
(§2) After incubation with the blocking agent, the cells were incubated with 0.25 μg of the indicated PE-conjugated antibody plus anti-human CD4 APC or anti-human CD3 for another 15 minutes in the dark and then washed 2 times with Cell Staining Buffer, and acquired in a FACSCanto II flow cytometer (BD Biosciences); the data was analyzed using FCS Express (De Novo Software); MFI correspond to the CCR8+ CD4+ lymphocytes or CCR8+ CD3+ lymphocytes.

[2] = biological target: T1, human chemokine (C-C motif) receptor 8 …; experiment: flow cytometry blocking, human PBMC, CD3+ gate; competitor PE-433H
[3] = biological target: T1, human chemokine (C-C motif) receptor 8 …; experiment: flow cytometry blocking, human PBMC, CD3+ gate; competitor PE-AB7
Description: as §1, §2
(§3) Percentage original MFI was calculated by dividing the MFI of samples blocked with AB1, AB2, AB3, AB4, AB5, AB6, AB7, AB8, AB9, AB10, AB11, AB12, AB13, AB14, AB15, and Commercial ABI antibodies, by the MFI of samples blocked with the corresponding isotype control. This value was subtracted from 100 to get a blocking percentage. The formula is shown below: […]

[4] = biological target: T1, human chemokine (C-C motif) receptor 8 …; experiment: flow cytometry blocking, human PBMC, CD3+ gate; % cells stained by competitor PE-AB15 after block
Description: as §1, §2

[5] = biological target: T1, human chemokine (C-C motif) receptor 8 …; experiment: flow cytometry blocking, human PBMC, CD3+ gate; competitor PE-AB13
Description: as §1, §2, §3

[6] = biological target: T1, human chemokine (C-C motif) receptor 8 …; experiment: flow cytometry blocking, human PBMC, CD3+ gate; competitor PE-L263G8
[7] = biological target: T1, human chemokine (C-C motif) receptor 8 …; experiment: flow cytometry blocking, human PBMC, CD3+ gate; competitor PE-AB12
Description: as §1, §2, §3

[8] = biological target: T1, human chemokine (C-C motif) receptor 8 …; experiment: flow cytometry blocking, human PBMC, CD3+ gate; % cells stained by competitor PE-AB7 after block
Description: as §1, §2

[9] = biological target: T1, human chemokine (C-C motif) receptor 8 …; experiment: flow cytometry blocking, human PBMC, CD3+ gate; competitor PE-AB14
Description: as §1, §2, §3

[10] = biological target: T1, human chemokine (C-C motif) receptor 8 …; experiment: flow cytometry blocking, human PBMC, CD3+ gate; competitor PE-AB11
Description: as §1, §2, §3

[11] = biological target: T1, human chemokine (C-C motif) receptor 8 …; experiment: flow cytometry blocking, human PBMC, CD3+ gate; % cells stained by competitor PE-AB5 after block
Description: as §1, §2

[12] = biological target: T1, human chemokine (C-C motif) receptor 8 …; experiment: flow cytometry blocking, human PBMC, CD3+ gate; competitor PE-AB6
Description: as §1, §2, §3

[13] = biological target: T1, human chemokine (C-C motif) receptor 8 …; experiment: flow cytometry blocking, human PBMC, CD3+ gate; % cells stained by competitor PE-AB10 after block
Description: as §1, §2

[14] = biological target: T1, human chemokine (C-C motif) receptor 8 …; experiment: flow cytometry blocking, human PBMC, CD3+ gate; competitor PE-AB10
Description: as §1, §2, §3

[15] = biological target: T1, human chemokine (C-C motif) receptor 8 …; experiment: flow cytometry blocking, human PBMC, CD3+ gate; % cells stained by competitor PE-AB13 after block
Description: as §1, §2

[16] = biological target: T1, human chemokine (C-C motif) receptor 8 …; experiment: flow cytometry blocking, human PBMC, CD3+ gate; competitor PE-AB15
Description: as §1, §2, §3

[17] = biological target: T1, human chemokine (C-C motif) receptor 8 …; experiment: flow cytometry blocking, human PBMC, CD3+ gate; % cells stained by competitor PE-AB11 after block
Description: as §1, §2

[18] = biological target: T1, human chemokine (C-C motif) receptor 8 …; experiment: flow cytometry blocking, human PBMC, CD3+ gate; % cells stained by competitor PE-433H after block
Description: as §1, §2

[19] = biological target: T1, human chemokine (C-C motif) receptor 8 …; experiment: flow cytometry blocking, human PBMC, CD3+ gate; % cells stained by competitor PE-AB12 after block
Description: as §1, §2

[20] = biological target: T1, human chemokine (C-C motif) receptor 8 …; experiment: flow cytometry blocking, human PBMC, CD3+ gate; % cells stained by competitor PE-L263G8 after block
Description: as §1, §2

[21] = biological target: T1, human chemokine (C-C motif) receptor 8 …; experiment: flow cytometry blocking, human PBMC, CD3+ gate; % cells stained by competitor PE-AB14 after block
Description: as §1, §2

[22] = biological target: T1, human chemokine (C-C motif) receptor 8 …; experiment: flow cytometry blocking, human PBMC, CD3+ gate; competitor PE-AB5
Description: as §1, §2, §3

[23] = biological target: T1, human chemokine (C-C motif) receptor 8 …; experiment: flow cytometry blocking, human PBMC, CD3+ gate; competitor PE-AB8
Description: as §1, §2, §3

[24] = biological target: T1, human chemokine (C-C motif) receptor 8 …; experiment: flow cytometry blocking, human PBMC, CD3+ gate; % cells stained by competitor PE-AB6 after block
Description: as §1, §2

T1 sequence (P51685 whole entry): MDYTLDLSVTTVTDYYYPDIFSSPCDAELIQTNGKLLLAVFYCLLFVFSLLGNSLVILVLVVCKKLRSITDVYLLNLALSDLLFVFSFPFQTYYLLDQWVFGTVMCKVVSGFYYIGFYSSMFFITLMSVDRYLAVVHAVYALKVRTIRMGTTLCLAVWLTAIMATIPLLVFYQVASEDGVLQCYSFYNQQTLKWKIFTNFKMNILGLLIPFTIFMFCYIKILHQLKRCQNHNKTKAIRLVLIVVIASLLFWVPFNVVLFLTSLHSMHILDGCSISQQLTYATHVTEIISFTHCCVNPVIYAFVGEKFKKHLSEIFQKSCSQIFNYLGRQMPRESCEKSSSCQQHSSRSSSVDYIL

B1: anti-CCR8 monoclonal antibody AB7 (antibody, V domains shown)
VH: AVQLVESGGGLVQPKESLKISCAASGFTFSYAAMYWVRQTPGKGLEWVARIRTKPNNYATYYADSVKGRFTISRDDSKSMVYLQMDNLKSEDTAMYYCNIMGITRGYYFDYWGQGVMVTVSS
VL: DIQMTQSPSFLSASVGDRVTINCKASQNINRYLNWYQQQLGEAPKLLIYNANNLQTGIPSRFSGSRSGTDFTLTISSLQPEDVATYFCLQHNSWPWTFGGGTKLELK
notes: Hybridoma monoclonal; also called antibody 7; clone 7
% Positive cells [1]: 0.6% | % Blocking [2]: 87.5% | % Blocking [3]: 83.8% | % Positive cells [4]: 0.85% | % Blocking [5]: 85.6% | % Blocking [6]: 79.7% | % Blocking [7]: 99.3% | % Positive cells [8]: 1.47% | % Blocking [9]: 96.3% | % Blocking [10]: 98% | % Positive cells [11]: 8.68% | % Blocking [12]: -0.24% | % Positive cells [13]: 0.53% | % Blocking [14]: 91.2% | % Positive cells [15]: 0.96% | % Blocking [16]: 87.1% | % Positive cells [17]: 0.14% | % Positive cells [18]: 0.88% | % Positive cells [19]: 0.05% | % Positive cells [20]: 1.19% | % Positive cells [21]: 0.26% | % Blocking [22]: -4.7% | % Blocking [23]: 92.9% | % Positive cells [24]: 8.3%

B2: anti-CCR8 monoclonal antibody AB8 (antibody, V domains shown)
VH: AVQLVESGGGLVQPKESLKISCAASGFIFSNAAMYWVRQAPGKGLQWVARIRTKPKNYATYYIDSVKGRFTISRDDSKSMVYLQMDNLKTEDTAMYYCNTMGLTRAYYFDYWGQGVMVTVSS
VL: DIQMTQSPSFLSASVGDRVTINCKASQNINRYLNWYQQKLGEAPKLLIYNANSLQTGIPSRFSGSGSGTDFTLTIRSLQPEDVATYFCLQHNSWPWTFGGGTKLELK
notes: Hybridoma monoclonal; also called antibody 8; clone 8
% Positive cells [1]: 6.94% | % Blocking [2]: 88.1% | % Blocking [3]: 6.48% | % Positive cells [4]: 0.07% | % Blocking [5]: 96.1% | % Blocking [6]: 92.5% | % Blocking [7]: 99.3% | % Positive cells [8]: 8.51% | % Blocking [9]: 98.5% | % Blocking [10]: 90.2% | % Positive cells [11]: 8.95% | % Blocking [12]: 1.33% | % Positive cells [13]: 0.65% | % Blocking [14]: 89.2% | % Positive cells [15]: 0.26% | % Blocking [16]: 98.9% | % Positive cells [17]: 0.69% | % Positive cells [18]: 0.84% | % Positive cells [19]: 0.05% | % Positive cells [20]: 0.44% | % Positive cells [21]: 0.11% | % Blocking [22]: -7.96% | % Blocking [23]: 18% | % Positive cells [24]: 8.17%

B3: anti-CCR8 monoclonal antibody AB10 (antibody, V domains shown)
VH: EVQLVETGGGLVQPKGSLKLSCAVSGFTFKTNAMNWVRQAPGKGLEWVARIRSKSNKYATYYADSVKDRFTISRDDSQSMLYLQMNNLKTEDTAMYYCVRGSEMGYYYAMDYWGQGTSVTVSS
VL: DIVMTQAAPSVPVTPGESVSISCRSSKSLLHSNGNTYLYWFLQRPGQSPQLLIYRMSNLASGVPDRFSGSGSGTAFTLRISRVEAEDVGVYYCMQHLEYPFTFGGGTKLEIK
notes: Hybridoma monoclonal; also called antibody 10; clone 10
% Positive cells [1]: 4.35% | % Blocking [2]: 19.9% | % Blocking [3]: 50.1% | % Positive cells [4]: 0.29% | % Blocking [5]: 88.1% | % Blocking [6]: 90.3% | % Blocking [7]: 93.9% | % Positive cells [8]: 4.54% | % Blocking [9]: 96.2% | % Blocking [10]: 96% | % Positive cells [11]: 8.75% | % Blocking [12]: 6.04% | % Positive cells [13]: 0.15% | % Blocking [14]: 97.5% | % Positive cells [15]: 0.79% | % Blocking [16]: 95.6% | % Positive cells [17]: 0.28% | % Positive cells [18]: 5.66% | % Positive cells [19]: 0.46% | % Positive cells [20]: 0.57% | % Positive cells [21]: 0.27% | % Blocking [22]: -5.55% | % Blocking [23]: 48.6% | % Positive cells [24]: 7.78%

B4: anti-CCR8 monoclonal antibody AB5 (antibody, V domains shown)
VH: QVQLKESGPGLVQPSQTLSLTCTVSGFSLTSYHVSWVRQPPGKGLEWMGVIWTGGSTTYNSLLKSRLSISRDISKSQVFLKMNSLQTEDTATYYCARGGTVVKGGFAYWGQGTLVTVSS
VL: DIQMTQSPASLSASLEEIVTITCQASQDIGNRLSWYQQKPGKSPQLLIYGATSLADGVPSRFSGSRSGTQYSLKISRLQVEDIGIYYCLQAYSTPLTFGSGTKLEIK
notes: Hybridoma monoclonal; also called antibody 5; clone 5
% Positive cells [1]: 8.45% | % Blocking [2]: -0.99% | % Blocking [3]: -7.14% | % Positive cells [4]: 6.75% | % Blocking [5]: -5.41% | % Blocking [6]: -22.1% | % Blocking [7]: -0.13% | % Positive cells [8]: 9.75% | % Blocking [9]: 9.26% | % Blocking [10]: -1.71% | % Positive cells [11]: 1.25% | % Blocking [12]: 96.1% | % Positive cells [13]: 7.42% | % Blocking [14]: -23.1% | % Positive cells [15]: 7.01% | % Blocking [16]: -2.58% | % Positive cells [17]: 7.14% | % Positive cells [18]: 7.14% | % Positive cells [19]: 7.54% | % Positive cells [20]: 7.17% | % Positive cells [21]: 6.47% | % Blocking [22]: 84.9% | % Blocking [23]: 0.12% | % Positive cells [24]: 0.32%

B5: anti-CCR8 monoclonal antibody AB6 (antibody, V domains shown)
VH: QVQLKESGPGLVQPSQTLSLTCTVSGFSLTSYHVSWVRQPPGKGLEWMGVIWTGGSTTYNSLLKSRLSISRDISKSQVFLKMNSLQTEDTATYYCARGGTVVKGGFAYWGQGTLVTVSS
VL: DIQMTQSPASLSASLEEIVTITCQASQDIGNRLSWYQQKPGKSPQLLIYGATSLADGVPSRFSGSRSGTQYSLKISRLQVEDIGIYYCLQAYSTPLTFGSGTKLEIK
notes: also called antibody 6; clone 6
% Positive cells [1]: 1.25% | % Blocking [2]: 9.05% | % Blocking [3]: 83% | % Positive cells [4]: 5.92% | % Blocking [5]: 2.41% | % Blocking [6]: -12.1% | % Blocking [7]: 5.71% | % Positive cells [8]: 1.55% | % Blocking [9]: 10.2% | % Blocking [10]: -9.26% | % Positive cells [11]: 7.69% | % Blocking [12]: 12.4% | % Positive cells [13]: 5.61% | % Blocking [14]: 6.97% | % Positive cells [15]: 6.49% | % Blocking [16]: 10% | % Positive cells [17]: 7.67% | % Positive cells [18]: 6.43% | % Positive cells [19]: 7.1% | % Positive cells [20]: 6.58% | % Positive cells [21]: 6.4% | % Blocking [22]: 7.24% | % Blocking [23]: 85.2% | % Positive cells [24]: 7.25%
